# Experimental data from the nanobody polyreactivity screen of Harvey et al. (2022).
# Experiment: yeast display, Sf9 membrane polyspecificity reagent, FACS + sequencing; frameworks hold sequencing errors
# Summary of the method: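 A synthetic nanobody library was expressed on Saccharomyces cerevisiae BJ5465 by galactose induction for 36–48 hours. The library was stained for 1 hour at 4 °C with 10% biotinylated, detergent-solubilized Sf9 membrane reagent and enriched with streptavidin microbeads before FACS. Low and high (top ~1%) gates were set on anti-HA fluorescence for expression and streptavidin fluorescence for reagent binding, and each polyreactivity label reflects the gate of origin.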
row,Sequence,polyreactivity (PSR sort gate)
1,QVQLVESGGGLVQAGGSLRLSCAASGRIFKGYAMGWYRQAPGKERELVAAITWRGGTTYYADSVKGRFTISRDNAKNTVYLQMNSLKPEDTAVYYCAVSGKTAHSPQRYYYWGQGTQVTVSS,high polyreactivity
2,QVQLVESGGGLVQAGGSLRLSCAASGRIFKIYAMGWYRQAPGKERELVAAISRGGRTYYADSVKGRFTISRDNAKNTVYLQMNSLKPEDTAVYYCAADLLISPEFYYWGQGTQVTVSS,high polyreactivity
3,QVQLVESGGGLVQAGGSLRLSCAASGRIFKKNAMGWYRQAPGKERELVAAISYRGGSTYYADSVKGRFTISRDNAKNTVYLQMNSLKPEDTAVYYCNVGSRGGWDASDYDYWGQGTQVTVSS,high polyreactivity
4,QVQLVESGGGLVQAGGSLRLSCAASGRIFKLYAMGWDRQAPGKERELVAAISKSGGNTYADSVKGRFTISRDNAKNTVYLQMNSLKPEDTAVYYCAATVQSTSDPFDYWGQGTQVTVSS,low polyreactivity
5,QVQLVESGGGLVQAGGSLRLSCAASGRIFKLYAMGWYRQAPGKERELGAAISTSAGSTNYADSEKGRFTISRDNAKNTVYLQMNSLKPEDPAVYYCAVAGVSTYYTYYYWGQGTQVTVSS,low polyreactivity
6,QVQLVESGGGLVQAGGSLRLSCAASGRIFKLYAMGWYRQAPGKERELVAAISTSAGSTNYADSVKGRFTISRDNEKNTVYLQMNSLKPEDTAVYYCAVAGVSTYYTYYYWGQGTQVTVSS,low polyreactivity
7,QVQLVESGGGLVQAGGSLRLSCAASGRIFKQYALGWYRQAPGKERELVAAISVRGGITYYADSVKGRFTISRDNAKNTVYLQMNSLKPEDTAVYYCAKRSYRTHTYDYWGQGTQVTVSS,low polyreactivity
8,QVQLVESGGGLVQAGGSLRLSCAASGRIFKQYAMGWYRQAPGKERELVAAISWDGGSTYYADSVKGRFTISRDNAKNTVYLQMNSLKPEDTAVYDCNKDLYYAYDYWGQGTQVTVSS,low polyreactivity
9,QVQLVESGGGLVQAGGSLRLSCAASGRIFKRNAMGWYRQAPGKERELVAAISSGTSTNYADSVKGRFTISRDNAKNTVYLQMNSLKPEDTAVYYCAVRPVDYRGYYYWGQGTQVTVSS,high polyreactivity
10,QVQLVESGGGLVQAGGSLRLSCAASGRIFKRYTMGWYRQAPGQERELVAGITFSGGSTYYADSVKGRFTISRDNAKNTVYLQMNSLKPEDTAVYYCNARVPPQGWGPWKAFDYWGQGTQVTVSS,low polyreactivity
11,QVQLVESGGGLVQAGGSLRLSCAASGRIFKSYAMGWYRPAPGKERELVAAINWSGGSTYYADSVKGRFTISRDTAKNTVYLQMNSLKPEDTAVYYCNALYAVRSYDSWGQGTQVTVSS,high polyreactivity
12,QVQLVESGGGLVQAGGSLRLSCAASGRIFKTNAMGWYRQAPGKERELVAGITSGGGTNYADSVKGRFTISRDNAKNTVYLQMNSLKPEDTAVYYCAKDRNFRHIKYSWGGYPYTMDYWGQGTQVTVSS,low polyreactivity
13,QVQLVESGGGLVQAGGSLRLSCAASGRIFKTYAMGWYRQAPGKERELVAAITSGGSTYYADSVKGRFTISRDNAKNTVYLQMNSLKPEDTAVYYCNRVYRYVYSWAYNYWGQGTQVTVSS,high polyreactivity
14,QVQLVESGGGLVQAGGSLRLSCAASGRIFKTYAMGWYRQAPGKERELVAAITWDVVRTYYADSVKGRFTISRDNAKNTVYLQMNSLKPEETAVYYCAAEGIRRSQRFNYWGQGTQVTVSS,high polyreactivity
15,QVQLVESGGGLVQAGGSLRLSCAASGRIFKVYTMGWYRQAPGKERELVATITRSGTSTYYADSVKGRFTISRDNAKNTVYLQMNSLKPEDTAVYYCARRVGYKFSYDYWGQGTQVTVSS,high polyreactivity
16,QVQLVESGGGLVQAGGSLRLSCAASGRIFKWYAMGWYRQAPGKEREFVAGIRWGGGRTHYADSVKGRFTISRDNAKNTVYLQMNSLKPEDTAVYYCAATSIGRYKSRLDYWGQGTQVTVSS,high polyreactivity
17,QVQLVESGGGLVQAGGSLRLSCAASGRIFKYNAKGWYRQAPGKERELVAAISGTGGSTYYADSVKGRFTISRDNAKNTVYLQMNSLKPEDTAVYYCNRRYYGHSTWKYDYWAQGTQVTVSS,high polyreactivity
18,QVQLVESGGGLVQAGGSLRLSCAASGRIFKYYAMGWYREAPGKERELVAAIDWRGDSTYYADSVKGRFTISRDHAKNTVYLQMNSLKPEDTAVYYCAVVGTRGYHGYDSWGQGTQVTVSS,low polyreactivity
19,QVQLVESGGGLVQAGGSLRLSCAASGRIFKYYAMGWYRPAPGKERELVAAISRSSGRTYYADSVKGRFTISRDNAKNTVYFQMNSLKPEDTAVYYCNALPSTVYLTYDYWGQGTQVTVSS,high polyreactivity
20,QVQLVESGGGLVQAGGSLRLSCAASGRIFKYYAMGWYRQAPGKERELVAAISQNGGRTYYADSVKGRFTISRDNAKNTVYLQMNSLKPEDTAVYYCAAGWRSYAGYYQGEFGYWGQGTQVTVSS,high polyreactivity
21,QVQLVESGGGLVQAGGSLRLSCAASGRIFKYYAMGWYRQAPGKERELVAAISRSGGRTYYADSVKGRFTISRDNAKNTVYLQMNSLKPEDTAVYYCNARVYSGHNYWGQGTQVTVSS,high polyreactivity
22,QVQLVESGGGLVQAGGSLRLSCAASGRIFKYYAMGWYRQAPGKERELVAAITSSGVSTYADSVKGRFTISRDNAKNTVYLQMISLKPEDTAVYYCADDYVREGLGYDYWGQGTQVTVSS,low polyreactivity
23,QVQLVESGGGLVQAGGSLRLSCAASGRIFKYYAMGWYRQAPGKERELVAAITYSGGSTYADSVKGRFTISRDNAKNTVYLQMNSLKPEDTAVYYCAVARRSRVVSSIRGDYWGQGTQVTVSS,high polyreactivity
24,QVQLVESGGGLVQAGGSLRLSCAASGRIFKYYGMGWYRQAPGKERELVAAISRGSSTNYADSVKGRFTISRDNAKNTVYLQMNSLKPEDTAVYYCAVSLRRGGSGYAYDYWGQGTQVTVSS,high polyreactivity
25,QVQLVESGGGLVQAGGSLRLSCAASGRIFKYYGMGWYRQAPGKESELVAAITRGDSTNYADSVKGRFTISRDNAKNTVYLQMNSLKPEDTAVYYCNVGTRRGYDYWGQGTQVTVSS,high polyreactivity
26,QVQLVESGGGLVQAGGSLRLSCAASGRIFKYYTMGWYRQAPGKERELVAAISRDDSTNYADSVKGRFTISRDNAKNTVYLQMNSLKPEDTAVYYCAKGYHQYAGFYYWGLGTQVTVSS,high polyreactivity
27,QVQLVESGGGLVQAGGSLRLSCAASGRIFKYYTMGWYRQATGKEREFVASITGSGGTTYYADSVKGRFTISRDNAKNTVYLQMNSLKPEDTAVYYCNAYSYPYWYRYYYWGQGTQVTVSS,high polyreactivity
28,QVQLVESGGGLVQAGGSLRLSCAASGRIFKYYVMGWYRQAPGKERELVATISRRDASTYYADSVKGRFTISRDNAKNTVYLQMNSLKPEDTAVYYCNADRARSERIKYDYWGQGTQGTVSS,high polyreactivity
29,QVQLVESGGGLVQAGGSLRLSCAASGRIFLDYAMGWYRQAPGKERELVAAIRYSGVGTYYADSVKGRFTISRDNAKNTVYLQMNSLKPEDTAVYYCNAVTKVGYLRRRDYWGQGTQVTVSS,high polyreactivity
30,QVQLVESGGGLVQAGGSLRLSCAASGRIFLFYAMGWYRQAPGKERELVAAISSTDDTYYADSVKGRFTISRDNAKNTVYLQMNSLKPEDTAVYYCAAYSIISQSEMYYWGQGTQVTVSS,low polyreactivity
